T1: harmonin-a Nter-PDZ1-PDZ2 fragment (residues 1-299) (UniProt Q9ES64 1-299)
T1 sequence (looked up): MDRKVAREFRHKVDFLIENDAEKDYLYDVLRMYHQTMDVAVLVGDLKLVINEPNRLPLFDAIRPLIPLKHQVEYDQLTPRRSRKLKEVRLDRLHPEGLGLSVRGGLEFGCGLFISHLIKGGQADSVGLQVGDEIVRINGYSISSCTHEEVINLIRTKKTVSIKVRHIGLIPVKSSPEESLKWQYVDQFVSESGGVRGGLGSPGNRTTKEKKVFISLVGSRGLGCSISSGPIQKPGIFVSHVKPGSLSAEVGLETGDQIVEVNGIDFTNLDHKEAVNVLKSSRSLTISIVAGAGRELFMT

T2: harmonin-a Nter-PDZ1 fragment (residues 1-203) (UniProt Q9ES64 1-203)
T2 sequence (looked up): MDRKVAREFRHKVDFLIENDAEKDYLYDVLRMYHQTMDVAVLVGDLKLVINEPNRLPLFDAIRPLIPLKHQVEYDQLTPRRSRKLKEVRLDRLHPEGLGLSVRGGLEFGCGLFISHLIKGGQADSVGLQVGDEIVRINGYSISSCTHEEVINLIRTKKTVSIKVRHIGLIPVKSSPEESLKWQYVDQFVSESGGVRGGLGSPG

T3: harmonin-a Nter domain (residues 1-79) (UniProt Q9ES64 1-79)
T3 sequence (looked up): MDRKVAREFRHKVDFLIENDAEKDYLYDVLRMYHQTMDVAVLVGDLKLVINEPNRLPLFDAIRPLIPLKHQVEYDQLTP

B1: GST-CDH23 + exon68 (cytoplasmic region of cadherin-23 including the exon68-encoded sequence, residues 847-1114) (domain or fragment)
chain: NWYYRTVHKRKLKAIVAGSAGNRGFIDIMDMPNTNKYSFDGANPVWLDPFCRNLELAAQAEHEDDLPENLSEIADLWNSPTRTHGTFGREPAAVKPDDDRYLRAAIQEYDNIAKLGQIIREGPIKGSLLKVVLEDYLRLKKLFAQRMVQKASSCHSSISELIQTELDEEPGDHSPGQGSLRFRHKPPVELKGPDGIHVVHGSTGTLLATDLNSLPEEDQKGLGRSLETLTAAEATAFERNARTESAKSTPLHKLRDVIMETPLEITEL
B2: GST-CDH23 + exon68ΔITEL (residues 847-1110) (domain or fragment)
chain: NWYYRTVHKRKLKAIVAGSAGNRGFIDIMDMPNTNKYSFDGANPVWLDPFCRNLELAAQAEHEDDLPENLSEIADLWNSPTRTHGTFGREPAAVKPDDDRYLRAAIQEYDNIAKLGQIIREGPIKGSLLKVVLEDYLRLKKLFAQRMVQKASSCHSSISELIQTELDEEPGDHSPGQGSLRFRHKPPVELKGPDGIHVVHGSTGTLLATDLNSLPEEDQKGLGRSLETLTAAEATAFERNARTESAKSTPLHKLRDVIMETPLE
B3: full-length harmonin-a (natural protein)
chain: MDRKVAREFRHKVDFLIENDAEKDYLYDVLRMYHQTMDVAVLVGDLKLVINEPNRLPLFDAIRPLIPLKHQVEYDQLTPRRSRKLKEVRLDRLHPEGLGLSVRGGLEFGCGLFISHLIKGGQADSVGLQVGDEIVRINGYSISSCTHEEVINLIRTKKTVSIKVRHIGLIPVKSSPEESLKWQYVDQFVSESGGVRGGLGSPGNRTTKEKKVFISLVGSRGLGCSISSGPIQKPGIFVSHVKPGSLSAEVGLETGDQIVEVNGIDFTNLDHKEAVNVLKSSRSLTISIVAGAGRELFMTDRERLEEARQRELQRQELLMQKRLAMESNKILQEQQEMERQRRKEIAQKAAEENERYRKEMEQISEEEEKFKKQWEEDWGSKEQLILPKTITAEVHPVPLRKPKYDQGVEPADHLDGSTEEQRQQDFRKYEEGFDPYSMFSPEQIAGKDVRLLRIKKEGSLDLALEGGVDSPVGKVVVSAVYEGGAAERHGGVVKGDEIMAINGKIVTDYTLAEAEAALQKAWNQGGDWIDLVVAVCPPKEYDDEL
B4: GST-CDH23Δexon68 (cytoplasmic region of cadherin-23 lacking the exon68-encoded sequence, residues 847-1079) (domain or fragment)
chain: NWYYRTVHKRKLKAIVAGSAGNRGFIDIMDMPNTNKYSFDGANPVWLDPFCRNLELAAQAEHEDDLPENLSEIADLWNSPTRTHGTFGREPAAVKPDDDRYLRAAIQEYDNIAKLGQIIREGPIKLIQTELDEEPGDHSPGQGSLRFRHKPPVELKGPDGIHVVHGSTGTLLATDLNSLPEEDQKGLGRSLETLTAAEATAFERNARTESAKSTPLHKLRDVIMETPLEITEL

Legend:
Experiment in all cases: SPR
[1] = target: T1, harmonin-a Nter-PDZ1-PDZ2 fragment …
[2] = target: T2, harmonin-a Nter-PDZ1 fragment (residues …)
[3] = target: T3, harmonin-a Nter domain (residues 1-79)
[4] = target: B1
[5] = target: B4
[6] = target: B2
[7] = target: GST-CDH23Δexon68ΔITEL (residues 847-1075)

Question: For B1, which Kd [1] is on record?
Answer: The Kd was 64 ± 6 nM.

Question: And the Kd [2]?
Answer: Its Kd is 94 ± 8 nM.

Question: And the Kd [3]?
Answer: The Kd was greater than 5 µM.

Question: Which results are given for B2?
Answer: Kd [1]: 66 ± 13 nM; Kd [2]: 106 ± 5 nM; Kd [3]: > 5 µM

Question: B3 was tested. Which Kd [4] did it give?
Answer: Its Kd is 97 ± 14 nM.

Question: What about the Kd [5] of the same binder?
Answer: The Kd was 79 ± 11 nM.

Question: And the Kd [6]?
Answer: The Kd was 127 ± 12 nM.

Question: What about the Kd [7] of the same binder?
Answer: The Kd was 48 ± 6 nM.

Question: Which Kd [1] does the source give for B4 here?
Answer: The Kd was 42 ± 11 nM.

Question: And the Kd [2]?
Answer: The Kd was 79 ± 10 nM.

Question: What about the Kd [3] of the same binder?
Answer: Its Kd is greater than 5 µM.

Source: PMC2928128 (Human Molecular Genetics, 2010)
